Assay results: PMC3139607, “Broad-Spectrum Inhibition of HIV-1 by a Monoclonal Antibody Directed against a gp120-Induced Epitope of CD4” (PLoS ONE, 2011)

Target: T1, MAb DB81 (Mus musculus)
T1 construct: IgH V1-39*01, D2-2*01, J3*01; IgK V6-17*01, J2*01; Whole mouse IgG1 kappa; only the variable domains are printed; The first and last residues of each V domain lie under the PCR primers; also called C9 (parent hybridoma well); anti-human CD4-HIV-1-gp120 complex DB81 monoclonal antibody; source: mouse hybridoma (spleen cells of immunized Balb/c mice x P3X63Ag8.653 myeloma); purified from cell …
T1 sequence (VH, as listed by the source, chain 1 of 2): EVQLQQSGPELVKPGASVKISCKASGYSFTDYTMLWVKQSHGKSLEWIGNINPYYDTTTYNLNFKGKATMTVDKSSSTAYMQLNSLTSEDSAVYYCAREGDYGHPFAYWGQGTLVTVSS
T1 sequence (VL, as listed by the source, chain 2 of 2): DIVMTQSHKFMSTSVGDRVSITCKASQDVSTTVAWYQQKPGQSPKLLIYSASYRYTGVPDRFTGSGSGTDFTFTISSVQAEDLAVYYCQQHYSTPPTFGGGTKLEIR
Test: SPR; MAb DB81 bound to the chip; synthetic 19-mer CD4 peptides as analytes (Figure 5)
Conditions: both partners purified

B1: human CD4-derived 19-mer peptide GTWTCTVLQNQKKVEFKID (peptide)
peptide: GTWTCTVLQNQKKVEFKID
notes: aa; 180-198 of membrane CD4 from Hominidae (Homo, P. troglodytes); also called human peptide; source: synthetic peptide (solid-phase F-moc, RP-HPLC purified)
binding result: binds
